Tests used:
[1] = molecular target: His8-tagged PII protein, PII(WT) (Synechocystis sp. PCC 6803) (UniProt Q55247)
[2] = molecular target: His8-tagged PII protein, PII(WT) (Synechocystis sp. PCC 6803) (UniProt Q55247); assay: BLI; Octet K2; His8-tagged PII variant loaded (10 ug/ml) on Ni-NTA sensor tips, free sites blocked with 72 ug/ml PII(ΔT); analyte GST-PirA 125 to 12,000 nM (or tag-free PirA or GST alone); with ADP (0.1 to 2 mM; 2 mM for variants and controls); 30°C; 50 mM Tris-HCl pH 7.4, 150 mM KCl, 2 mM MgCl2, 0.02% lauryldimethylamine oxide, 0.2 mg/ml BSA; KD from concentration versus maximum response
[3] = molecular target: PII(S49E), phosphomimetic variant, His8-tagged (Synechocystis sp. PCC 6803) (UniProt Q55247); assay: as above

- NAGK activity (AGPR-coupled assay; 6 ug NAGK, 2.4 ug PII, 0.1 mM arginine, 1 mM ATP, 1 mM ADP) against PirA from 0 to 30 ug [1]: 50%
- Kd [2]: 2.9 µM
- Kd [3]: 2.5 µM
Substance: GST-tagged PirA (Ssr0692, PII-interacting regulator of arginine synthesis) (natural protein)
